Laboratory results as given in patent US12433934B2, “Methods and compositions for preventing and treating atherosclerosis and related diseases” (Shanghai Puyou Biomedical Co., Ltd., priority 2018, dated 2025).
Entries after “also recorded” stand apart in the source; their conditions may differ.

Legend:
[1] = system: macrophages differentiated from monocyte THP-1; assay: Phagocytosis of DiL-oxLDL by macrophages differentiated from THP-1 (fluorescence microscope, flow cytometry); assay type: cell-based, human; conditions: 10 μg/ml DiL-oxLDL, 5 h
Method: Experimental materials: sDSS1 protein, DiL-oxLDL, phorbol ester (PMA, Sigma Aldrich, Article No.: P1585), human monocyte THP-1 (Cell Bank of Typical Culture Preservation Committee of Chinese Academy of Sciences, Catalog No.: SCSP-567).
Experimental method: THP-1 cells were inoculated into a 6-well plate with 250000 cells per well, and the culture solution contained 100 ng/mL PMA. After being activated by PMA for 48 h, the cells were cultured in a fresh culture medium for 4 days to facilitate cell adhesion. The old culture medium was discarded. 1.5 ml 10 μg/ml DiL-oxLDL was added, or 1.5 ml 10 μg/ml DiL-oxLDL was added together with 2 μg/ml, 5 μg/ml, 10 μg/ml, or 20 μg/ml of the sDSS1 protein. After incubation for 5 h in an incubator, the fluorescence signal in the cells was observed by a fluorescence microscope. The cells were digested by trypsin to form single cells for detecting fluorescence intensity via flow cytometry.

Hep G2 cells [2] = assay: Uptake of DiL-oxLDL by Hep G2 cells (fluorescence microscope, flow cytometry); assay type: cell-based, human; conditions: 9 h
Method: (§1) Materials: sDSS1 protein, DiL-oxLDL, DiL-LDL (ThermoFisher, L3482), human hepatoma cell Hep G2 (Cell Bank of Typical Culture Preservation Committee of Chinese Academy of Sciences, Catalog Number: SCSP-510).
(§2) Experimental method: (1) When detecting the phagocytosis of oxLDL by Hep G2 cells, Hep G2 cells were inoculated into a 6-well plate with 250000 cells per well. After 12 h, all the cells were adhered. The old culture medium was discarded. 1.5 ml 10 μg/ml DiL-oxLDL was added, or 1.5 ml 10 μg/ml DiL-oxLDL was added together with 5 μg/ml and 50 μg/ml of the sDSS1 protein. After incubation for 9 h in the incubator, the fluorescence signal in the cells was observed by a fluorescence microscope. The cells were digested by trypsin to form single cells for detecting fluorescence intensity via flow cytometry. (2) When detecting the phagocytosis of LDL by Hep G2 cells, Hep G2 cells were inoculated into a 6-well plate with 250000 cells per well. After 12 h, all the cells were adhered. The old culture medium was discarded. 1.5 ml 10 μg/ml DiL-LDL was added, or 1.5 ml 10 μg/ml DiL-LDL was added together with 5 μg/ml and 50 μg/ml of the sDSS1 protein. After incubation for 10 h in the incubator, the fluorescence signal in the cells was observed by fluorescence microscope. The cells were digested by trypsin to form single cells for detecting fluorescence intensity via flow cytometry.

[3] = Toxic reaction in animal experiments; assay type: in vivo
Text: The sDSS1 protein used in the following examples is produced and quality controlled by the company itself. Upon detection, the purity of the protein is more than 95%, and endotoxins (the content of endotoxins is less than 3 EU/mg protein) and other impurity residues meet the standards.

[4] = system: human umbilical vein endothelial cells (HUVECs); assay: Uptake of DiL-oxLDL by HUVEC cells (fluorescence microscope, flow cytometry); assay type: cell-based; conditions: 10 μg/ml DiL-oxLDL, 5 h
Method: Experimental materials: sDSS1 protein, DiL-oxLDL (Thermo Fisher technology, Article No.: L34358), human umbilical vein endothelial cell (HUVEC) (PromoCell, Article No.: C-12200).
Experimental method: HUVEC cells were inoculated into a 6-well plate with 300000 cells per well. After 24 h of adherence, 1.5 ml 10 μg/ml DiL-oxLDL was added, or 1.5 ml 10 μg/ml DiL-oxLDL was added together with 2 μg/ml, 5 μg/ml, 10 μg/ml or 20 μg/ml of the sDSS1 protein. After incubation for 5 h in an incubator, the fluorescence signal in the cells was observed by a fluorescence microscope. The cells were digested with trypsin to form single cells for detecting the fluorescence intensity via flow cytometry.

Hep G2 cells [5] = assay: Uptake of DiL-LDL by Hep G2 cells (fluorescence microscope, flow cytometry); assay type: cell-based, human; conditions: 10 h
Method: as §1, §2

LDL = assay: Co-incubation with LDL, SDS-PAGE separation, Coomassie brilliant blue staining; assay type: binding; conditions: 12 h
Method: Experimental materials: sDSS1 protein, sDSS1 mutant protein 1 (sDSS1-M1, SEQ ID NO: 15), sDSS1 mutant protein 2 (sDSS1-M2, SEQ ID NO: 16), oxidized low density lipoprotein (oxLDL) (Solarbio, Article No.: H7980); low density lipoprotein (LDL) (Solarbio, Article No.: H7960).
Experimental method: 2 μg of oxLDL or LDL was mixed with 6 μg of sDSS1 protein or 10 μg of sDSS1 protein in a 1.5 ml EP tube in the presence of 20 mM sodium acetate/acetic acid buffer (pH 4.5) or 20 mM phosphate buffer (pH 7.2) respectively, and incubated at 37° C. for 12 h. A loading buffer was added in the incubated product and evenly mixed, and the obtained mixture was denatured at 100° C. for 10 min to prepare a loading sample. The resulting sample was subjected to electrophoretic separation via polyacrylamide gel electrophoresis (SDS-PAGE). After separation, the SDS-PAGE gel was stained with Coomassie brilliant blue to display protein strips. The sDSS1-M1 or sDSS1-M2 protein was respectively mixed and incubated with oxLDL, and treated in the same way. 15 μL of the sample was used for SDS-PAGE electrophoresis separation.

[6] = 50 μg/ml sDSS1 protein, 10 μg/ml DiL-LDL

B1: sDSS1 protein: sDSS1 protein produced by the company itself, purity more than 95%; sequence of human sDSS1 protein is SEQ ID NO:1 (protein, listed as Homo sapiens)
chain: MSEKKQPVDLGLLEEDDEFEEFPAEDWAGLDEDEDAHVWEDNWDDDNVEDDFSNQLRATVLLMILVCETPYGCYVLHQKGRMCSAFLCC
Macrophages having fluorescence (flow cytometry) ([1]; 2 μg/ml sDSS1 protein): not detected; also recorded: basically didn't appear | Macrophages having fluorescence (flow cytometry) ([1]; 10 μg/ml sDSS1 protein): not detected; also recorded: basically didn't appear | Fluorescence in macrophages (fluorescence microscope) ([1]; sDSS1 protein added (2 and 10 μg/ml)): no obvious fluorescence was observed in the cells, or the fluorescence was very weak; also recorded: basically no obvious fluorescent signals were observed | DiL fluorescence level within Hep G2 cells, DiL-oxLDL (flow cytometry) (Hep G2 cells [2]; 5 μg/ml sDSS1, 10 μg/ml DiL-oxLDL): does not significantly affect; also recorded: did not significantly affect | DiL signal intensity in Hep G2 cells, DiL-oxLDL (flow cytometry) (Hep G2 cells [2]; 50 μg/ml sDSS1 protein, 10 μg/ml DiL-oxLDL): significantly increase | Animal toxic reaction [3]: without causing obvious animal toxic reaction | Fluorescence within HUVEC cells (flow cytometry) ([4]; 2 μg/ml sDSS1 protein): significantly weakened | Uptake of oxLDL by HUVEC cells (flow cytometry statistics) ([4]; 2 μg/ml sDSS1 protein): reduced by half | Fluorescence within HUVEC cells (flow cytometry) ([4]; 10 μg/ml sDSS1 protein): significantly weakened | Concentration dependence of the reduction of fluorescence / oxLDL uptake in HUVEC cells ([4]; 2, 5, 10, 20 μg/ml sDSS1 protein): concentration-dependent; also recorded: gradually weakened; also recorded: obviously dose-dependent | Intensity of Dil fluorescence in Hep G2 cells, DiL-LDL (flow cytometry) (Hep G2 cells [5]; 5 μg/ml sDSS1, 10 μg/ml DiL-LDL): basically consistent | Intensity of Dil fluorescence in Hep G2 cells, DiL-LDL (flow cytometry) (Hep G2 cells [5]; 5 μg/ml sDSS1, 10 μg/ml DiL-LDL, listed as sDSS1): could not cause significant changes | Quantity of Hep G2 cells uptaking DiL-LDL (fluorescence microscope) (Hep G2 cells [5]; 5 μg/ml sDSS1 protein, 10 μg/ml DiL-LDL): not changed significantly | Quantity of Hep G2 cells uptaking DiL-LDL (fluorescence microscope) (Hep G2 cells [5]; 5 μg/ml sDSS1 protein, 10 μg/ml DiL-LDL, listed as sDSS1): no significant difference | Intensity of Dil fluorescence in Hep G2 cells, DiL-LDL (flow cytometry) (Hep G2 cells [5]; [6]): basically consistent; also recorded: could not cause significant changes | Quantity of Hep G2 cells uptaking DiL-LDL (fluorescence microscope) (Hep G2 cells [5]; [6]): not changed significantly | Quantity of Hep G2 cells uptaking DiL-LDL (fluorescence microscope) (Hep G2 cells [5]; 50 μg/ml sDSS1 protein, 10 μg/ml DiL-LDL, listed as sDSS1): no significant difference | Interaction with LDL (complex on SDS-PAGE gel) (LDL; phosphate buffer pH 7.2, 37° C.): interacted with the sDSS1 protein; also recorded: resulted in interactions | Interaction with LDL (complex on SDS-PAGE gel) (LDL; sodium acetate/acetic acid buffer pH 4.5, 37° C.): interacted with the sDSS1 protein; also recorded: resulted in interactions
